According to patent US20050255104A1:

Target: human tumor necrosis factor-α (TNFα) (human) (UniProt P01375)
Experiment: cell-based or functional assay

human tumor necrosis factor-α (TNFα) (human), sequence (P01375 77-233 limits assumed): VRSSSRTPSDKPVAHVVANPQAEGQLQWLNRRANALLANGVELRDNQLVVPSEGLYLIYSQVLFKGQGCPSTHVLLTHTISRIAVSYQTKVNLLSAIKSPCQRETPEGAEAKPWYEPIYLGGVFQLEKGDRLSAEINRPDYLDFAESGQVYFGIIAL

B1: chimeric mouse/human IgG1 anti-platelet mAb (7E3) (antibody, INN chains, looked up, V domains shown)
VH: EVQLQQSGTVLARPGASVKMSCEASGYTFTNYWMHWVKQRPGQGLEWIGAIYPGNSDTSYIQKFKGKAKLTAVTSTTSVYMELSSLTNEDSAVYYCTLYDGYYVFAYWGQGTLVTVSA
VL: EIVLTQSPVTLSVTPGDSVSLSCRASRDISNNLHWFQQTSHESPRLLIKYASQSMSGIPSRFSGSGSGTDFTLSINSVETEDFGMYFCQQTNSWPYTFGGGTKLEIK
modifications: full IgG1
Q: For B1, which IL-6 secreted by FS-4 fibroblasts, 0.3 ng/ml rhTNF with 4 µg/ml antibody is on record?
A: 1.6 ng/mL

Q: What about the IL-6 secreted by FS-4 fibroblasts, 1.5 ng/ml rhTNF with 4 µg/ml antibody of the same binder?
A: 1.96 ng/mL

Q: What about the IL-6 secreted by FS-4 fibroblasts, 7.5 ng/ml rhTNF with 4 µg/ml antibody of the same binder?
A: 2.16 ng/mL
